Experimental findings from patent US20240301385, “DNA MODIFYING ENZYMES AND ACTIVE FRAGMENTS AND VARIANTS THEREOF AND METHODS OF USE” (LIFEEDIT THERAPEUTICS, INC., published 2024) are described below.

This data set addresses T1, APG30130-L32-nAPG07433.1 (synthetic).
T1 chain: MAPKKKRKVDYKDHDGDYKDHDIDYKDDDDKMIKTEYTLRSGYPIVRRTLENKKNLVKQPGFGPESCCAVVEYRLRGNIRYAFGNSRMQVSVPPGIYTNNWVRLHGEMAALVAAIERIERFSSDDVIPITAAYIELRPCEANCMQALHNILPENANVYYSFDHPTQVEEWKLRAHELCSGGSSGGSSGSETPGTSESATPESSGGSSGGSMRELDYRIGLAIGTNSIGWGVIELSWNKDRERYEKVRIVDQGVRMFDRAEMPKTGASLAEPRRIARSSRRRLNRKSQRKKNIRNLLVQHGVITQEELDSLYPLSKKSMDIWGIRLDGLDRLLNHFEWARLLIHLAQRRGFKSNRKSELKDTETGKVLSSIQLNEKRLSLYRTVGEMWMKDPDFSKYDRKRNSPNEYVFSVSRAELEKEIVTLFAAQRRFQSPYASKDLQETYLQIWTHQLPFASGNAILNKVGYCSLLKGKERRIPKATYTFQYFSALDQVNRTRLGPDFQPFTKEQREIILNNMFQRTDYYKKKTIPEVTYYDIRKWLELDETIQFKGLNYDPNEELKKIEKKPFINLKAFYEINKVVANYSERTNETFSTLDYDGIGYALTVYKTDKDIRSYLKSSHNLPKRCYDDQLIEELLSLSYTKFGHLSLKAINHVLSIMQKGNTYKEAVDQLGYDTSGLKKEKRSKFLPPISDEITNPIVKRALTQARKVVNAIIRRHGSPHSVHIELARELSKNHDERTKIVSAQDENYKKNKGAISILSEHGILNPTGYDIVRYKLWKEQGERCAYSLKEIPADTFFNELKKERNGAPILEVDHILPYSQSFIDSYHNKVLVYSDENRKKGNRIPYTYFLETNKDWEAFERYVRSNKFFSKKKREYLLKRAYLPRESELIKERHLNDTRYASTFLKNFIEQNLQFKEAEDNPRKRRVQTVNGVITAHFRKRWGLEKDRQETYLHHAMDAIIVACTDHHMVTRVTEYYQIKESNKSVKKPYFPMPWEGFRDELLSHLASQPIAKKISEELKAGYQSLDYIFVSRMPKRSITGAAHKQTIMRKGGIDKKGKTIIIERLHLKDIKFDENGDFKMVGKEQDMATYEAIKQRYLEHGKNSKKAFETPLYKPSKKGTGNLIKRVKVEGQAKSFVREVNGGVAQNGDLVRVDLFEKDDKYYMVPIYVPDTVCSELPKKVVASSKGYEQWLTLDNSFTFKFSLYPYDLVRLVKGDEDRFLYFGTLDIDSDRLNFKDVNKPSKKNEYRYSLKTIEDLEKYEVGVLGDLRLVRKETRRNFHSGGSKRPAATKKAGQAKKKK
The experiment in a line: cell_activity; HEK293FT; PAM SEQ 152. The settings on record: tags: SV40 NLS, 3xFLAG N-term; nucleoplasmin NLS C-term. An outline of the steps: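 Editing read out by next-generation sequencing (MiSeq 2×250) of PCR amplicons spanning the target site, analysed for INDELs or % cytosine conversion per position (position 1 nearest PAM).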

B1: SGN000194 sgRNA ; SGN000194 target (ssRNA ; dsDNA)
RNA: GCCGCACAGCAUUCAGGUCGGUCAUAGUUCCAUUAAAGCCAAAAGUGGCUUUGAUGUUUCUAUGAUAAGGGUUUCGACCCGUGGCGUCGGGGAUCGCCUGCCCAUUGAAAUGGGCUUCUCCCCAUUUAUU
DNA 1: GCCGCACAGCATTCAGGTCG
DNA 2: CGACCTGAATGCTGTGCGGC
B1 registered an activity of 3.29 % mutated reads.

B2: SGN000930 sgRNA ; SGN000930 target (ssRNA ; dsDNA)
RNA: GAACAACUCAAAUGGAAAUGAAUAUGUCAUAGUUCCAUGAAAGCCAAAAGUGGCUUUGAUGUUUCUAUGAUAAGGGUUUCGGCCCGUGGCGUCGGGGAUCGCCUGCCCAUUCCGAUGGGCUUCUCCCCAUUUAUU
DNA 1: GAACAACTCAAATGGAAATGAATAT
DNA 2: ATATTCATTTCCATTTGAGTTGTTC
For B2, the activity amounted to 3.14 % mutated reads.
